Reference: article PMC8866402, “Fortilin interacts with TGF-β1 and prevents TGF-β receptor activation” (Communications Biology, 2022)

How the values were obtained:
[1] = target: T1, recombinant human Flag-tagged p53 (human, UniProt P04637 1-393); experiment: co-IP; in vitro mixture of recombinant Flag-fortilin, TGF-β1, Flag-p53 and His6-NQO2 in Buffer A (10 mM Tris pH 7.4, 100 mM NaCl, 0.01% NP-40); rabbit anti-fortilin mAb or rabbit IgG, 2 h room temperature; anti-rabbit IgG Dynabeads; four washes in Buffer B (0.3% NP-40); western blot; conditions: both partners purified
T1 construct: p53, human; Positive control of the co-IP; also called rh-p53; source: bought: OriGene (Catalog #: TP300003)
T1 sequence (P04637 whole entry): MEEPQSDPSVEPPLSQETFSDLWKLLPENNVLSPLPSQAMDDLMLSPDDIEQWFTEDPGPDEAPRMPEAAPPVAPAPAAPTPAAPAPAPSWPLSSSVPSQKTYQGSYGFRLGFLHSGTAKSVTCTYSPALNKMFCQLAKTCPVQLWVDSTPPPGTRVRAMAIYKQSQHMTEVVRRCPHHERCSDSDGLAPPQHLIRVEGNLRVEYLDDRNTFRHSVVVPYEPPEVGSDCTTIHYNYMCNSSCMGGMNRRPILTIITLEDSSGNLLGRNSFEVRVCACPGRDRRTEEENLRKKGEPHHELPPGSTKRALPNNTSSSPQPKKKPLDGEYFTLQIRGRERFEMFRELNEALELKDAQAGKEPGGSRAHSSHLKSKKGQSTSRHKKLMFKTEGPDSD

[2] = target: T2, recombinant human latency-associated-peptide (LAP)-TGF-β1 protein (human, UniProt P01137 30-278); experiment: BLI; BLItz; biotinylated rh-fortilin immobilised on streptavidin biosensors (30 μg/mL, PBS); various concentrations of analyte, 180 s association, 180 s dissociation in PBS; conditions: both partners purified
T2 construct: TGF-β1 precursor, human; 'latency-associated-peptide (LAP)-TGF-β1'; As far as I recall, R&D Systems 246-LP is the LAP of TGF-β1 alone (about Leu30-Arg278 of the precursor), not the latent complex; also called LAP-TGF-β1 molecule; source: bought: R&D Systems (Catalog #: 246-LP-025/CF)
T2 sequence (P01137 30-278): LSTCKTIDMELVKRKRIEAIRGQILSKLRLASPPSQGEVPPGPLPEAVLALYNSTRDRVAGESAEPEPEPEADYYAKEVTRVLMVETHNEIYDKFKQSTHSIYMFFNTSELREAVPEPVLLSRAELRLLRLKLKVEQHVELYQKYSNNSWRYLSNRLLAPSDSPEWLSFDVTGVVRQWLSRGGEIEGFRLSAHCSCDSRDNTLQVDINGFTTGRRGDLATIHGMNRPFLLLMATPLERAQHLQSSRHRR

Binder	binding result [1]	Kd [2] [nM]
recombinant human Flag-tagged fortilin (natural protein, fortilin, human; the abstract calls fortilin a 172-amino acid protein; also called rh-fortilin; source: bought: OriGene (Catalog #: TP301664)) MIIYRDLISHDEMFSDIYKIREIADGLCLEVEGKMVSRTEGNIDDSLIGGNASAEGPEGEGTESTVITGVDIVMNHHLQETSFTKEAYKKYIKDYMKSIKGKLEEQRPERVKPFMTGAAEQIKHILANFKNYQFFIGENMNPDGMVALLDYREDGVTPYMIFFKDGLEMEKC	binds	–
biotinylated rh-fortilin (natural protein, human, biotin (NHS-PEG4-biotin), fortilin, human; The BLI methods say only 'rh-fortilin'; also called biotinylated fortilin; source: rh-fortilin biotinylated with NHS-PEG4-biotin and desalted) MIIYRDLISHDEMFSDIYKIREIADGLCLEVEGKMVSRTEGNIDDSLIGGNASAEGPEGEGTESTVITGVDIVMNHHLQETSFTKEAYKKYIKDYMKSIKGKLEEQRPERVKPFMTGAAEQIKHILANFKNYQFFIGENMNPDGMVALLDYREDGVTPYMIFFKDGLEMEKC	–	930
